This note sets out measurements from patent EP4389215A1 (Consejo Superior De Investigaciones Científicas, dated 2024).

The target in series [1] is prion-like domain (PLD) of human TDP-43 (TDP-43 274-414), unmodified (human) (UniProt Q13148). The series can be described thus: 15N CPMG relaxation dispersion, 200 µM PLD, region 321-343; self-assembly.
Series [2] shares this target. The series can be described thus: cell-based or functional assay.
Series [3] deals with the molecule itself. Kind of series: cell-based or functional assay.

Bounds are passed on as bounds.

For “prion-like domain (PLD) of human TDP-43 (TDP-43 274-414), unmodified (from UniProt Q13148 274-414)”, in series [1], the kex (exchange rate, 15N CPMG) was above 2000 s⁻¹. In series [2], the t1/2 (h) of ThT aggregation, 10 µM PLD monomer, 0 % PLD seeds came out at 4.87 h; the t1/2 (h) of ThT aggregation, 10 µM PLD monomer, 0.1 % PLD seeds came out at 4.99 h; the t1/2 (h) of ThT aggregation, 10 µM PLD monomer, 0.5 % PLD seeds was determined as 2.88 h; the t1/2 (h) of ThT aggregation, 10 µM PLD monomer, 1 % PLD seeds amounted to 2.86 h.

B1: MetO PLD (MetO-PLD polypeptide of the invention; SEQ ID NO: 2 with oxidized methionine residues) (other)
chain: GRFGGNPGGFGNQGGFGNSRGGGAGLGNNQGSNMGGGMNFGAFSINPAMMAAAQAALQSSWGMMGMLASQQNQSGPSGNNQNQGNMQREPNQAFGSGNNSYSGSNSGAAIGWGSASNAGSGSGFNGGFGSSMDSKSSGWGM
modifications: methionine sulfoxide at all Met residues (M307, M311, M322, M323, M336, M337, M339, M359, M405, M414, numbered on full human TDP-43, SEQ ID NO: 3); full MetO validated by mass spectrometry and NMR (M414 not detected by MS)
On to B1, for which, in series [3], the “t1/2 (h) of ThT aggregation, 10 µM MetO PLD monomer, 0 % MetO PLD seeds” value was found to be 54.9 h; the “t1/2 (h) of ThT aggregation, 10 µM MetO PLD monomer, 0.1 % MetO PLD seeds” value amounted to 38.3 h; the “t1/2 (h) of ThT aggregation, 10 µM MetO PLD monomer, 0.5 % MetO PLD seeds” value was found to be 18.7 h; the “t1/2 (h) of ThT aggregation, 10 µM MetO PLD monomer, 1 % MetO PLD seeds” value came to 18 h.
